From patent US20220340673A1 (HARBOUR BIOMED SUZHOU, published 2022)

Experiments:
[1] = molecular target: T1, human BCMA on cells (HEK293T/huBCMA; NCI-H929) (human, UniProt Q02223 1-184); test: FACS on NCI-H929 cell line [B]
T1 construct: whole, on cells; also called human BCMA molecules on NCI-H929 cell line
T1 sequence (looked up): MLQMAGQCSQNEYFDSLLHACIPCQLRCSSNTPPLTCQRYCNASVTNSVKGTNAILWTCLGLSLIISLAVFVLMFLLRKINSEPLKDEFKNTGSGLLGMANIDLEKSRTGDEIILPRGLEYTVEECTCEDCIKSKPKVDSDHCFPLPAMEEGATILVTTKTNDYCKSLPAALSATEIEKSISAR
Procedure: To study the binding activity of the BCMA arm of the BCMA×CD3 bispecific antibody to human BCMA, NCI-H929 cell line with highly expressed BCMA was used for binding experiments with human BCMA at cellular level. Briefly, NCI-H929 cell suspensions were collected. The cell density was adjusted to 1×10⁶ cells/mL, and the cells were inoculated in 96 well V-bottom plates at 100 μL cells/well (Corning, Cat#: 3894), followed by the addition of test antibodies at 100 μL/well, which is gradient diluted at 3 folds of the concentration with 2 folds of the final concentration. Cells were incubated at 4° C. for 2 hours in the dark. Afterwards, cells were washed twice with 100 μL/well of pre-cooled PBS, centrifuged at 500 g for 5 min at 4° C., and followed by discarding the supernatant. 100 μL/well of fluorescent secondary antibody (Alexa Fluor 488-conjugated AffiniPure Goat Anti-Human IgG, Fcγ Fragment Specific, Jackson, Cat#:109-545-06, 1:500 dilution) was added and incubated at 4° C. for 1 hour in the dark. Cells were washed twice with 100 μL/well of pre-cooled PBS, centrifuged at 500 g, 4° C. for 5 min, and followed by discarding the supernatant. Finally, the cells were resuspended with 200 μL/well of pre-cooled PBS, and the fluorescence luminescence signal values were read by BD FACS CANTOII.

[2] = molecular target: T1, human BCMA on cells (HEK293T/huBCMA; …); test: cell-based or functional assay
[3] = molecular target: T2, cynomolgus monkey BCMA on cells (HEK293T/cynoBCMA) (cynomolgus monkey, UniProt A0A2K5UD97 1-183); test: FACS on HEK293T cell strain overexpressing cynomolgus monkey BCMA [C]
T2 construct: whole, on cells
T2 sequence (A0A2K5UD97 entry or part of it): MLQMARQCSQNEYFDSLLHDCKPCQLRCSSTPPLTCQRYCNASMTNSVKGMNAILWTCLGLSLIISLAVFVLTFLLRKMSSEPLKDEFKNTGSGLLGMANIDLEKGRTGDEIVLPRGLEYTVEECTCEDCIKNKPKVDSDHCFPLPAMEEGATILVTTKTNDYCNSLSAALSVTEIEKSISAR
From the text: To study the in vitro binding activity of the BCMA arm of the BCMA×CD3 bispecific antibody, HEK293T cell strain overexpressing human BCMA (HEK293T/huBCMA) and HEK293T cell strain overexpressing cynomolgus monkey BCMA (HEK293T/cynoBCMA) were used for antibody binding experiments at cellular level. Briefly, HEK293T/huBCMA cells and HEK293T/cynoBCMA cells were digested and resuspended with DMEM complete medium. The cell density of the two was adjusted to 1×10⁶ cells/mL, respectively. Cells were inoculated at 100 μL cells/well in a 96 well V-bottom plate (Corning, Cat#: 3894), followed by the addition of test antibodies at 100 μL/well, which is gradient diluted at 3 folds of the concentration with 2 folds of the final concentration. Cells were incubated at 4° C. for 1 hour in the dark. Afterwards, the cells were washed twice with 100 μL/well of pre-cooled PBS, centrifuged at 500 g for 5 min at 4° C., and followed by discarding the supernatant. 100 μL/well of fluorescent secondary antibody (Alexa Fluor 488-conjugated AffiniPure Goat Anti-Human IgG, Fcγ Fragment Specific, Jackson, Cat#: 109-545-06, 1:500 dilution) was added and incubated for 30 min at 4° C. in the dark. […] Finally, the cells were resuspended with 200 μL/well of pre-cooled PBS, and the fluorescence luminescence signal values were read by BD FACS CANTOII. […]

[4] = molecular target: T3, human CD3e/g ECD-hFc recombinant protein (human, UniProt P07766 23-126; P09693 23-116); test: Biacore, antigen coupled to a CM5 chip, PR003178 injected at 12-0.375 nM, 1:1 kinetic fit [E]
T3 construct: extracellular domain; Bought from ChemPartner; not shown: human Fc
T3 sequence (P07766 23-126, chain 1 of 2): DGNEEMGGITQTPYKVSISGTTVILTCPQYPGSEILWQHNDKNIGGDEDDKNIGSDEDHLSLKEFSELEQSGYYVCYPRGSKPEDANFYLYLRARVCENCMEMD
T3 sequence (P09693 23-116, chain 2 of 2): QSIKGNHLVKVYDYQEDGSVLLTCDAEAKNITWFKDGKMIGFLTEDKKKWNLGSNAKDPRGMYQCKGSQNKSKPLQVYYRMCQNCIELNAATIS
Procedure: Human BCMA-Fc, Avitag recombinant protein (ACRO, Cat. BC7-H82F0), cynomolgus monkey BCMA-Fc, Avitag (ACRO, Cat. BCA-C82F4) were purchased from ACRO, human CD3e/g ECD-hFc recombinant protein (Lot.20190508002), cynomolgus monkey CD3e/g ECD-hFc recombinant protein and human (Lot.2018040001) were purchased from ChemPartner.
The flow rate was set as 10 μl/min and four antigens were coupled on four channels on two CMS: 1) the injection time was set as 300 s, and 50 mM of NHS and 200 mM of EDC were freshly mixed at 1:1 volume ratio and injected into four channels; 2) human BCMA-Fc, Avitag recombinant protein, cynomolgus monkey BCMA-FC, Avitag, human CD3e/g ECD-hFc recombinant protein and cynomolgus CD3e/g ECD-hFc recombinant protein were all diluted to 1 μg/ml with sodium acetate (Cat# BR-1003-50) (pH 4.5), and injected into channel 2, 3 and 4 of chip 1 and channel 2 of chip 2, respectively; 3) 1 M of ethanolamine (pH8.5) was injected for 300 s to block the remaining active carboxyl groups on the chips surface. After blockage, the instrument was continued to be equilibrated with 1 ×HBS- EP+buffer for two hours. The final coupling amounts of human BCMA-Fc, Avitag recombinant protein, cynomolgus monkey BCMA-Fc, Avitag, human CD3e/g ECD-hFc recombinant protein and cynomolgus monkey CD3e/g ECD-hFc recombinant protein were 120 RU, 70 RU, 200 RU and 290 RU, respectively.
A multi-cycle kinetic mode was set, and each cycle included the binding of PRO03178 as well as the regeneration of the chip. PRO03178 with two-fold gradient dilution was injected into four channels at a flow rate of 30 μl/min. A binding time of 180 s and a dissociation time of 400 s or 600s were set. Finally, 10 mM of glycine-hydrochloric acid (pH 1.5) (GE Life Sciences, Cat# BR-1003-54) was injected at the same flow rate for 60 s to regenerate the chip.

B1: BCMA x CD3 bispecific antibody PR003178 (bispecific antibody, human IgG1, lambda, L234A L235A)
heavy 1: not shown
light: QAVVTQEPSLTVSPGGTVTLTCRSSTGAVTTSNYANWVQQKPGQAPRGLIGGTNKRAPWTPARFSGSLLGDKAALTLLGAQPEDEAEYFCALWYSNLWVFGGGTKLTVLGQPKAAPSVTLFPPSSEELQANKATLVCLISDFYPGAVTVAWKADSSPVKAGVETTTPSKQSNNKYAASSYLSLTPEQWKSHRSYSCQVTHEGSTVEKTVAPTECS
heavy 2: EVQLVETGGGLIQPGGSLRLSCAASGFTVSDNYMTWVRQAPGKGLEWVSVIFSGGNTYYADSVKGRFTISRDNAKNTLYLQMNSLRAEDTALYYCARRNYDDTRGTDVFDIWGQGTMVTVSSGGGGSGGGGSGGGGSEVQLVETGGGLIQPGGSLRLSCAASGFTVSDNYMTWVRQAPGKGLEWVSVIFSGGNTYYADSVKGRFTISRDNAKNTLYLQMNSLRAEDTALYYCARRNYDDTRGTDVFDIWGQGTMVTVSSASEPKSSDKTHTCPPCPAPEAAGGPSVFLFPPKPKDTLMISRTPEVTCVVVDVSHEDPEVKFNWYVDGVEVHNAKTKPREEQYNSTYRVVSVLTVLHQDWLNGKEYKCKVSNKALPAPIEKTISKAKGQPREPQVCTLPPSREEMTKNQVSLSCAVKGFYPSDIAVEWESNGQPENNYKTTPPVLDSDGSFFLVSKLTVDKSRWQQGNVFSCSVMHEALHNHYTQKSLSLSPGK
notes: Three chains: HC1 (anti-CD3 heavy, knob, LALA), LC (anti-CD3 lambda light), HC2 (two tandem anti-BCMA VH of PR001046 joined by (G4S)3, then Fc hole, LALA); also called PRO03178
**Q.** Which results are given for B1?
**A.** EC50 [1]: 1.1 nM; EC50 of the killing curve (LDH release, human PBMC effector cells, NCI-H929 target cells), fold against positive control 2 [2]: 10 fold; EC50 [3]: 0.921 nM; koff [4]: 0.0149 s⁻¹; kon [4]: 588000 M⁻¹ s⁻¹
